Measured values taken from patent publication US20100249029A1 (Novo Nordisk, published 2010).
Positions count from the first letter of the chain named. Numbers in names are those of the source.

Experiments:
[1] = biological target: T1, Biotinylated prolactin receptor BirATag-Ser-PRLR (1-210) (human, UniProt P16471 25-234, biotinylated (BirA tag, biotin added during expression in E. coli)); test: SPR (Biacore); biotinylated BirATag-Ser-PRLR (1-210) amine-coupled to CM5 chip, variant injected at 3.13-50 nM; STDEV 0.035
T1 construct: range 1-210; also called BirA-Ser-PRLR (1-210); not shown: BirA tag (biotin acceptor tag)
T1 sequence: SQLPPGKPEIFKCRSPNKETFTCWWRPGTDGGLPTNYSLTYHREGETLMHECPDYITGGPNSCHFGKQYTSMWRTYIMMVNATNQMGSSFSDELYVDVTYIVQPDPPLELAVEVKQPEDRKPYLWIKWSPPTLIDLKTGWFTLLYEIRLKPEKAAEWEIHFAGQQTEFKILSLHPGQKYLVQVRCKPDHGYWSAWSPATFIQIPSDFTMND
Protocol: (§1) Biotinylated prolactin receptor BirATag-Ser-PRLR (1-210) was diluted to 20 μg/ml in 10 mM sodium acetate pH 4.0 (Biacore BR-1003-49) and immobilized on a CM5 chip (Biacore BR-1006-68) with the immobilization reagents 1-ethyl-3-(3-dimethylaminopropyl) carbodiimide hydrochloride (EDC), N-hydroxysuccinimide (NHS) and 1.0 M ethanolamine-HCl pH 8.5 (Biacore BR1000-50). The immobilization level was 1500 RU. The PRL variants prepared as described in Example 5 were diluted to a series of concentrations as following: 3.13/6.25/12.5/25/50 nM and run through the PRLR immobilized chip using HBS-EP (10 mM HEPES pH 7.4; 150 mM NaCl; 3 mM EDTA; 0.005% v/v Tween-20) as the running buffer under the following conditions: […]

[2] = biological target: T1, Biotinylated prolactin receptor …; test: SPR (Biacore); biotinylated BirATag-Ser-PRLR (1-210) amine-coupled to CM5 chip, variant injected at 3.13-50 nM; STDEV 0.000
Protocol: as §1

[3] = biological target: T1, Biotinylated prolactin receptor …; test: SPR (Biacore); biotinylated BirATag-Ser-PRLR (1-210) amine-coupled to CM5 chip, variant injected at 3.13-50 nM; STDEV 0.021
Protocol: as §1

[4] = biological target: T1, Biotinylated prolactin receptor …; test: SPR (Biacore); biotinylated BirATag-Ser-PRLR (1-210) amine-coupled to CM5 chip, variant injected at 3.13-50 nM; STDEV 0.057
Protocol: as §1

[5] = biological target: T1, Biotinylated prolactin receptor …; test: SPR (Biacore); biotinylated BirATag-Ser-PRLR (1-210) amine-coupled to CM5 chip, variant injected at 3.13-50 nM; STDEV 0.11
Protocol: as §1

[6] = biological target: T1, Biotinylated prolactin receptor …; test: SPR (Biacore); biotinylated BirATag-Ser-PRLR (1-210) amine-coupled to CM5 chip, variant injected at 3.13-50 nM; STDEV 0.092
Protocol: as §1

[7] = biological target: T1, Biotinylated prolactin receptor …; test: SPR (Biacore); biotinylated BirATag-Ser-PRLR (1-210) amine-coupled to CM5 chip, variant injected at 3.13-50 nM; STDEV 0.2546
Protocol: as §1

[8] = biological target: T1, Biotinylated prolactin receptor …; test: SPR (Biacore); biotinylated BirATag-Ser-PRLR (1-210) amine-coupled to CM5 chip, variant injected at 3.13-50 nM; STDEV 0.3606
Protocol: as §1

[9] = biological target: T1, Biotinylated prolactin receptor …; test: SPR (Biacore); biotinylated BirATag-Ser-PRLR (1-210) amine-coupled to CM5 chip, variant injected at 3.13-50 nM; STDEV 0.064
Protocol: as §1

[10] = biological target: T1, Biotinylated prolactin receptor …; test: SPR (Biacore); biotinylated BirATag-Ser-PRLR (1-210) amine-coupled to CM5 chip, variant injected at 3.13-50 nM; STDEV 0.44
Protocol: as §1

[11] = biological target: T1, Biotinylated prolactin receptor …; test: SPR (Biacore); biotinylated BirATag-Ser-PRLR (1-210) amine-coupled to CM5 chip, variant injected at 3.13-50 nM; STDEV 0.18
Protocol: as §1

[12] = biological target: T1, Biotinylated prolactin receptor …; test: SPR (Biacore); biotinylated BirATag-Ser-PRLR (1-210) amine-coupled to CM5 chip, variant injected at 3.13-50 nM; STDEV 0.0636
Protocol: as §1

[13] = biological target: T1, Biotinylated prolactin receptor …; test: SPR (Biacore); biotinylated BirATag-Ser-PRLR (1-210) amine-coupled to CM5 chip, variant injected at 3.13-50 nM; STDEV 0.1273
Protocol: as §1

[14] = biological target: T1, Biotinylated prolactin receptor …; test: SPR (Biacore); biotinylated BirATag-Ser-PRLR (1-210) amine-coupled to CM5 chip, variant injected at 3.13-50 nM; STDEV 0.085
Protocol: as §1

[15] = biological target: T1, Biotinylated prolactin receptor …; test: SPR (Biacore); biotinylated BirATag-Ser-PRLR (1-210) amine-coupled to CM5 chip, variant injected at 3.13-50 nM; STDEV 0.049
Protocol: as §1

[16] = biological target: T2, ECD-PRL-R, soluble extracellular domain of the prolactin receptor, Ser-PRLR(1-210) (human, UniProt P16471 25-234); test: HX-MS, 6 uM vPRL with or without 12 uM ECD-PRL-R
T2 construct: range 1-210
T2 sequence: T1 sequence
Protocol: Amide hydrogen/deuterium exchange (HX) was initiated by a 10-fold dilution of vPRL in the presence or absence of ECD-PRL-R into a deuterated buffer (i.e. 20 mM Tris, 150 mM NaCl, 99% D₂O, pH 7.4 (uncorrected value)). Non-deuterated controls were prepared by dilution into an identical protiated buffer. All HX reactions were carried out at 30° C. and contained 6 μM vPRL variant in the absence or presence of 12 μM ECD-PRL-R. At appropriate time intervals, aliquots of the HX reaction were quenched by addition of an equal volume of ice-cold quenching buffer (1.25 M Tris(2-carboxyethyl)phosphine hydrochloride, adjusted to pH 2.0 using NaOH) resulting in a final pH of 2.5 (uncorrected value). Quenched samples were immediately frozen in liquid N₂ and stored at −80° C.
The samples were run on a cooled high pressure liquid chromatography-mass spectrometry system for rapid desalting and mass analysis as described (Rand et al. J. Biol. Chem. 281, 23018 (2006)).

B1: PRL S61A, D68N, G71A, Q73A, G129R, K190R (ligand)
chain: LPICPGGAARCQVTLRDLFDRAVVLSHYIHNLSSEMFSEFDKRYTHGRGFITKAINSCHTASLATPENKEAAAQMNQKDFLSLIVSILRSWNEPLYHLVTEVRGMQEAPEAILSKAVEIEEQTKRLLERMELIVSQVHPETKENEIYPVWSGLPSLQMADEESRLSAYYNLLHCLRRDSHKIDNYLKLLRCRIIHNNNC
notes: Printed without the prefix Ser-. 'G71A' is copied as printed
Q: How did the Kd [1] turn out when B1 was run?
A: 1.7 nM

B2: PRL S61A, D68N, G129R, K190R (ligand)
chain: B1 chain with A71Q, A73Q
notes: Printed without the prefix Ser-; No. 23 carries the same substitutions with Ser-
Q: B2 was tested. Which Kd [2] did it give?
A: 1.4 nM

B3: Ser-PRL D68N, E70K, Q73L, G129R, K190R (ligand)
chain: SLPICPGGAARCQVTLRDLFDRAVVLSHYIHNLSSEMFSEFDKRYTHGRGFITKAINSCHTSSLATPENKKQALQMNQKDFLSLIVSILRSWNEPLYHLVTEVRGMQEAPEAILSKAVEIEEQTKRLLERMELIVSQVHPETKENEIYPVWSGLPSLQMADEESRLSAYYNLLHCLRRDSHKIDNYLKLLRCRIIHNNNC
Q: For B3, which Kd [3] is on record?
A: 1.2 nM

B4: Ser-PRL D68N, Q73L, G129R, K190R (ligand)
chain: B3 chain with K71E
Q: B4 was tested. Which Kd [4] did it give?
A: 1.2 nM

B5: Ser-PRL G129R, K190R (ligand)
chain: B3 chain with N69D, K71E, L74Q
Q: Which Kd [5] does the source give for B5 here?
A: 5.1 nM

B6: Ser-PRL K42R, Q73L, G129R, K190R (ligand)
chain: B3 chain with K43R, N69D, K71E
Q: For B6, which Kd [6] is on record?
A: 2.6 nM

B7: Ser-PRL N31E, G129R, K190R (ligand)
chain: B3 chain with N32E, N69D, K71E, L74Q
Q: For B7, which Kd [7] is on record?
A: 2.7 nM

B8: Ser-PRL N31R, G129R, K190R (ligand)
chain: B3 chain with N32R, N69D, K71E, L74Q
Q: Which Kd [8] does the source give for B8 here?
A: 2.01 nM

B9: Ser-PRL S33A Q73L G129R K190R (ligand)
chain: B3 chain with S34A, N69D, K71E
Q: For B9, which Kd [9] is on record?
A: 5 nM

B10: Ser-PRL S33A, Q73L, G129R, K190R, I194V, H195Y, N196R, N197D (ligand)
chain: B3 chain with S34A, N69D, K71E, I195V, H196Y, N197R, N198D
Q: For B10, which Kd [10] is on record?
A: 3.8 nM

B11: Ser-PRL S38I, D68N, G129R, I182V (ligand)
chain: B3 chain with S39I, K71E, L74Q, I183V, R191K
Q: For B11, which Kd [11] is on record?
A: 2.8 nM

B12: Ser-PRL S38I, S61A, D68N, Q73L, G129R, K190R (ligand)
chain: B3 chain with S39I, S62A, K71E
Q: For B12, which Kd [12] is on record?
A: 0.3 nM

B13: Ser-PRL S61A, D68N, G129R, K190R (ligand)
chain: B3 chain with S62A, K71E, L74Q
Q: B13 was tested. Which Kd [13] did it give?
A: 2.3 nM

B14: Ser-PRL S61A, D68N, Q73L, G129R, K190R (ligand)
chain: B3 chain with S62A, K71E
Q: Which Kd [14] does the source give for B14 here?
A: 1.1 nM

B15: Ser-PRL S61A, Q73L, G129R, K190R (ligand)
chain: B3 chain with S62A, N69D, K71E
Q: Which Kd [15] does the source give for B15 here?
A: 1.3 nM

B16: vPRL: variant of PRL with amino acid residues 1-11 deleted and the mutations Q12S and G129R (ligand)
chain: SVTLRDLFDRAVVLSHYIHNLSSEMFSEFDKRYTHGRGFITKAINSCHTSSLATPEDKEQAQQMNQKDFLSLIVSILRSWNEPLYHLVTEVRGMQEAPEAILSKAVEIEEQTKRLLERMELIVSQVHPETKENEIYPVWSGLPSLQMADEESRLSAYYNLLHCLRRDSHKIDNYLKLLKCRIIHNNNC
Q: Does B16 bind [16]?
A: binds
